# From publication doi:10.1101/183855
# Biological target: DEAD-box RNA helicase DDX6 (human (endogenous in 293T)) (UniProt P26196)
# Assay: proximity ligation
# Sequence of UniProt P26196 (P26196 whole entry): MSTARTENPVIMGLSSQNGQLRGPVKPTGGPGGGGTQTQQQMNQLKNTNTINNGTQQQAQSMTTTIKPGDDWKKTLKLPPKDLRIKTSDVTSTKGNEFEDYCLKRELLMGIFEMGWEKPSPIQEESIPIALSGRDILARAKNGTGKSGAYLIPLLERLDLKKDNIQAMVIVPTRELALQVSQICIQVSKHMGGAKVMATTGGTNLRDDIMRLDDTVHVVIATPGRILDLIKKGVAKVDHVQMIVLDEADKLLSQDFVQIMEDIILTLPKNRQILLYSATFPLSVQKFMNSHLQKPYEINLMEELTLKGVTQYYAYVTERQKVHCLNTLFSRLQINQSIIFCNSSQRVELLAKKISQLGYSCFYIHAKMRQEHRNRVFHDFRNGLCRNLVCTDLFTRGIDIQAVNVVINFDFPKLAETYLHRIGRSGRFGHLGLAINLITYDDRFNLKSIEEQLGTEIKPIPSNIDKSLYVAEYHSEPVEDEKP
substance,measurement,value
"G2A Gag (HIV-1 Gag with glycine 2 changed to alanine, expressed from LAI provirus) (natural protein)",PLA spots per Z stack image (PLA spots per Z stack image),56
same,PLA spots per cell (PLA spots per cell),50
"HIV-1 Gag, wild type (expressed from LAI provirus) (natural protein)",PLA spots per cell (PLA spots per cell),50
